In PMC11127164, “Brefeldin A and M-COPA block the export of RTKs from the endoplasmic reticulum via simultaneous inactivation of ARF1, ARF4, and ARF5” (The Journal of Biological Chemistry, 2024):

T1: glutathione S-transferase-fused Golgi-localized γ-adaptin ear-containing, ARF-binding protein 3 (1–316) (UniProt Q9NZ52 1-316)
T1 construct: also called GST-GGA3; GST-GGA3(1–316); source: bought: Cytoskeleton, coated on Sepharose beads
T1 sequence (looked up): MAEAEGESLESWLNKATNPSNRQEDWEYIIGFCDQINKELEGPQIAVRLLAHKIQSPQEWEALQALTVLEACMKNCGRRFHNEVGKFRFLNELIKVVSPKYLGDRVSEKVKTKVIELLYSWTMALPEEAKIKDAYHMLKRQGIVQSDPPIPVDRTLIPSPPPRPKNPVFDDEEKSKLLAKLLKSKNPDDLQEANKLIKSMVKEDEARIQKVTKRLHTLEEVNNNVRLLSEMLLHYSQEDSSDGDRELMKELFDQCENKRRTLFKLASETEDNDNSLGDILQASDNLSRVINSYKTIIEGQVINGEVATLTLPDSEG

B1: ADP-ribosylation factor 4 (natural protein, human (endogenous in GIST-T1 and PC-9), UniProt P18085 1-180, looked up)
chain: MGLTISSLFSRLFGKKQMRILMVGLDAAGKTTILYKLKLGEIVTTIPTIGFNVETVEYKNICFTVWDVGGQDRIRPLWKHYFQNTQGLIFVVDSNDRERIQEVADELQKMLLVDELRDAVLLLFANKQDLPNAMAISEMTDKLGLQSLRNRTWYVQATCATQGTGLYEGLDWLSNELSKR
notes: ADP-ribosylation factor 4 (ARF4), human, endogenous in GIST-T1 and PC-9 cells; also called ARF4; source: endogenous, GIST-T1 and PC-9 lysate
B2: ADP-ribosylation factor 1 (natural protein)
chain: not shown
notes: ADP-ribosylation factor 1 (ARF1), human, endogenous in GIST-T1 and PC-9 cells; also called ARF1; source: endogenous, GIST-T1 and PC-9 lysate
B3: ADP-ribosylation factor 5 (natural protein, human (endogenous in GIST-T1 and PC-9), UniProt P84085 1-180, looked up)
chain: MGLTVSALFSRIFGKKQMRILMVGLDAAGKTTILYKLKLGEIVTTIPTIGFNVETVEYKNICFTVWDVGGQDKIRPLWRHYFQNTQGLIFVVDSNDRERVQESADELQKMLQEDELRDAVLLVFANKQDMPNAMPVSELTDKLGLQHLRSRTWYVQATCATQGTGLYDGLDWLSHELSKR
notes: ADP-ribosylation factor 5 (ARF5), human, endogenous in GIST-T1 and PC-9 cells; also called ARF5; source: endogenous, GIST-T1 and PC-9 lysate

Tests used:
[1] = target: T1, glutathione S-transferase-fused …; assay: pull-down; GST-GGA3(1–316)-coated Sepharose beads incubated with lysates of GIST-T1 or PC-9 cells at 4 °C for 1 h, washed once, immunoblot for ARFs; cells untreated or treated with 1 μM M-COPA or 1 μM BFA for 4 h (GIST-T1) or 200 nM M-COPA for 8 h (PC-9); settings: one partner purified
[2] = target: T2, Golgi-specific BFA-resistance guanine nucleotide exchange factor 1 (human (endogenous in GIST-T1), UniProt Q92538 1-1860); assay: co-IP; endogenous GBF1 immunoprecipitated from GIST-T1 lysate (NP-40 lysis buffer, 50 mM HEPES pH 7.4) with anti-GBF1 on Dynabeads Protein G, 4 °C, 5 h, immunoblot for ARFs; cells untreated or treated with 1 μM M-COPA for 4 h; co-precipitated ARF normalised to GBF1; settings: partners not purified
T2 construct: Golgi-specific BFA-resistance guanine nucleotide exchange factor 1 (GBF1), human, endogenous in GIST-T1 cells; Immunoprecipitated with an anti-GBF1 antibody on Dynabeads Protein G; also called GBF1; source: endogenous, GIST-T1 lysate
T2 sequence (Q92538 whole entry): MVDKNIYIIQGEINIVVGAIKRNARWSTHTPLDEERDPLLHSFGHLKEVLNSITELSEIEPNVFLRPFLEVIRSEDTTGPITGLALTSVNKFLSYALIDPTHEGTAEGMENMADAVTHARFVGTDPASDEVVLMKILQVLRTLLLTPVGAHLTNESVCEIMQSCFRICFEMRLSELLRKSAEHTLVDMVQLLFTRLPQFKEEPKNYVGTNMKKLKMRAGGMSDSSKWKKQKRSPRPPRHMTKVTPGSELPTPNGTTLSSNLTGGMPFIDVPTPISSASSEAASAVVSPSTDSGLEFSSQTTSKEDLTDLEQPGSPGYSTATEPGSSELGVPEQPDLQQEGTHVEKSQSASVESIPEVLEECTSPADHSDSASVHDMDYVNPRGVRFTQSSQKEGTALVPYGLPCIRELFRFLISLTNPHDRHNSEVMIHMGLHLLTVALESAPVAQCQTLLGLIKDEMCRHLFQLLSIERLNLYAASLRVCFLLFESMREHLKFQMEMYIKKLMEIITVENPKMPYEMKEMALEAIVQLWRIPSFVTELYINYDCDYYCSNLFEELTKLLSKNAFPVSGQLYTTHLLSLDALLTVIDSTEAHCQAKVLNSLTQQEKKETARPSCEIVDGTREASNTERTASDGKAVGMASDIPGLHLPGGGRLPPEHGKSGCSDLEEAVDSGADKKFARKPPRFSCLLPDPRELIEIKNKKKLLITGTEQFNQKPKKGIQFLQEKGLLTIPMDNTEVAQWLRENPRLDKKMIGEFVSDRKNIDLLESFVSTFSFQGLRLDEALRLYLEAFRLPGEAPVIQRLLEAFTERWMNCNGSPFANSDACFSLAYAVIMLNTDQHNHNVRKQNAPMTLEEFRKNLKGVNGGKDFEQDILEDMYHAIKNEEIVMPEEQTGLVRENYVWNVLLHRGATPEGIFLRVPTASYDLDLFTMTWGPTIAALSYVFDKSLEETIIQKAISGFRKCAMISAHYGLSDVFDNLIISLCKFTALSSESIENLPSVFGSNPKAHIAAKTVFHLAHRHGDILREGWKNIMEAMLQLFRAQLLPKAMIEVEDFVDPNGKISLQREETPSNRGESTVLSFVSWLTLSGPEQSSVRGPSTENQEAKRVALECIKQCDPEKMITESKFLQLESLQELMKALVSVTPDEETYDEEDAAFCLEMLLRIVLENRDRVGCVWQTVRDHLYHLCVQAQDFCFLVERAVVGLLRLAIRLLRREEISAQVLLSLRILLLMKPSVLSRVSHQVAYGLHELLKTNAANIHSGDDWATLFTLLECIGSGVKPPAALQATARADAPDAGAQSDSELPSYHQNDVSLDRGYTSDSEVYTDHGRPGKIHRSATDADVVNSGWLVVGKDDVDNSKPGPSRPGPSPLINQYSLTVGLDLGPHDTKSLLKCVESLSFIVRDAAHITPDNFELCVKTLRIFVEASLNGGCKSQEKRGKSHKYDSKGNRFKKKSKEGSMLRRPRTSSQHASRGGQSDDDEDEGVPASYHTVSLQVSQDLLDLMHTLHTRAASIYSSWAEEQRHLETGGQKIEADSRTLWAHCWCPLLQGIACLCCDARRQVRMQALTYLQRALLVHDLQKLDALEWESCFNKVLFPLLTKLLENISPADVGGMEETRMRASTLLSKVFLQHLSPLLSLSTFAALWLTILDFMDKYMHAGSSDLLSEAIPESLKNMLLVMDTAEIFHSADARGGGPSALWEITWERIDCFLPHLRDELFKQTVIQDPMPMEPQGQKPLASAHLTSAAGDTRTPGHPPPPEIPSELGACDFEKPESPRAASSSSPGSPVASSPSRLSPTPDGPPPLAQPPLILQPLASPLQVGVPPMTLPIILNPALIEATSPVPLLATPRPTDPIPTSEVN

Row | Binder | level of GGA3-bound ARF after M-COPA treatment of the cells, relative to the untreated control [1] [%] | fold increase of ARF co-immunoprecipitated with GBF1 after M-COPA treatment, relative to the untreated control [2] [fold]
1 | B1 | < 18 | 14.1
2 | B2 | < 18 | 6.89
3 | B3 | < 18 | 8.66
